Experimental data as given in patent US12630600B2 (MEDIMMUNE LIMITED, priority 2022, dated 2026).
Starred links: 1 amine or outer side, 2 acyl side, 3 side chain; linkers in the order of their positions; H or OH if unused. Non-standard residues stand in square brackets, D forms with d. Groups on a side chain read outwards from the residue. No end group written: not given here. *: point of attachment. C20 diacid = O=C(O)CCCCCCCCCCCCCCCCCCC(=O)*; C18 diacid = O=C(O)CCCCCCCCCCCCCCCCC(=O)*; γGlu = O=C(O)[C@H](CCC(=O)[*:2])N[*:1]; αMeF = C[C@](N)(Cc1ccccc1)C(=O)O; AEEA = NCCOCCOCC(=O)O; Aib = CC(C)(N)C(=O)O

B1: Peptide 450 (peptide)
peptide: H[Aib]QGTFTSDVSK[αMeF]LDKK([AEEA-AEEA-γGlu-γGlu-C18 diacid])RAQDFVRWLLE[Aib]G-OH
modifications: N-terminus assumed
SMILES: CC(C)C[C@H](NC(=O)[C@H](Cc1c[nH]c2ccccc12)NC(=O)[C@H](CCCNC(=N)N)NC(=O)[C@@H](NC(=O)[C@H](Cc1ccccc1)NC(=O)[C@H](CC(=O)O)NC(=O)[C@H](CCC(N)=O)NC(=O)[C@H](C)NC(=O)[C@H](CCCNC(=N)N)NC(=O)[C@H](CCCCNC(=O)COCCOCCNC(=O)COCCOCCNC(=O)CC[C@H](NC(=O)CC[C@H](NC(=O)CCCCCCCCCCCCCCCCC(=O)O)C(=O)O)C(=O)O)NC(=O)[C@H](CCCCN)NC(=O)[C@H](CC(=O)O)NC(=O)[C@H](CC(C)C)NC(=O)[C@](C)(Cc1ccccc1)NC(=O)[C@H](CCCCN)NC(=O)[C@H](CO)NC(=O)[C@@H](NC(=O)[C@H](CC(=O)O)NC(=O)[C@H](CO)NC(=O)[C@@H](NC(=O)[C@H](Cc1ccccc1)NC(=O)[C@@H](NC(=O)CNC(=O)[C@H](CCC(N)=O)NC(=O)C(C)(C)NC(=O)[C@@H](N)Cc1c[nH]cn1)[C@@H](C)O)[C@@H](C)O)C(C)C)C(C)C)C(=O)N[C@@H](CC(C)C)C(=O)N[C@@H](CCC(=O)O)C(=O)NC(C)(C)C(=O)NCC(=O)O
B2: Peptide 455 (peptide)
peptide: H[Aib]QGTFTSDVSK[αMeF]LDKK([AEEA-AEEA-γGlu-γGlu-C20 diacid])RAQDFVRWLL[Aib]E-NH2
modifications: N-terminus assumed
SMILES: CC(C)C[C@H](NC(=O)[C@H](Cc1c[nH]c2ccccc12)NC(=O)[C@H](CCCNC(=N)N)NC(=O)[C@@H](NC(=O)[C@H](Cc1ccccc1)NC(=O)[C@H](CC(=O)O)NC(=O)[C@H](CCC(N)=O)NC(=O)[C@H](C)NC(=O)[C@H](CCCNC(=N)N)NC(=O)[C@H](CCCCNC(=O)COCCOCCNC(=O)COCCOCCNC(=O)CC[C@H](NC(=O)CC[C@H](NC(=O)CCCCCCCCCCCCCCCCCCC(=O)O)C(=O)O)C(=O)O)NC(=O)[C@H](CCCCN)NC(=O)[C@H](CC(=O)O)NC(=O)[C@H](CC(C)C)NC(=O)[C@](C)(Cc1ccccc1)NC(=O)[C@H](CCCCN)NC(=O)[C@H](CO)NC(=O)[C@@H](NC(=O)[C@H](CC(=O)O)NC(=O)[C@H](CO)NC(=O)[C@@H](NC(=O)[C@H](Cc1ccccc1)NC(=O)[C@@H](NC(=O)CNC(=O)[C@H](CCC(N)=O)NC(=O)C(C)(C)NC(=O)[C@@H](N)Cc1c[nH]cn1)[C@@H](C)O)[C@@H](C)O)C(C)C)C(C)C)C(=O)N[C@@H](CC(C)C)C(=O)NC(C)(C)C(=O)N[C@@H](CCC(=O)O)C(N)=O
B3: Peptide 456 (peptide)
peptide: H[Aib]QGTFTSDVSK[αMeF]LDRK([AEEA-AEEA-γGlu-C20 diacid])RAQDFVRWLL[Aib]E-NH2
modifications: N-terminus assumed
SMILES: CC(C)C[C@H](NC(=O)[C@H](Cc1c[nH]c2ccccc12)NC(=O)[C@H](CCCNC(=N)N)NC(=O)[C@@H](NC(=O)[C@H](Cc1ccccc1)NC(=O)[C@H](CC(=O)O)NC(=O)[C@H](CCC(N)=O)NC(=O)[C@H](C)NC(=O)[C@H](CCCNC(=N)N)NC(=O)[C@H](CCCCNC(=O)COCCOCCNC(=O)COCCOCCNC(=O)CC[C@H](NC(=O)CCCCCCCCCCCCCCCCCCC(=O)O)C(=O)O)NC(=O)[C@H](CCCNC(=N)N)NC(=O)[C@H](CC(=O)O)NC(=O)[C@H](CC(C)C)NC(=O)[C@](C)(Cc1ccccc1)NC(=O)[C@H](CCCCN)NC(=O)[C@H](CO)NC(=O)[C@@H](NC(=O)[C@H](CC(=O)O)NC(=O)[C@H](CO)NC(=O)[C@@H](NC(=O)[C@H](Cc1ccccc1)NC(=O)[C@@H](NC(=O)CNC(=O)[C@H](CCC(N)=O)NC(=O)C(C)(C)NC(=O)[C@@H](N)Cc1c[nH]cn1)[C@@H](C)O)[C@@H](C)O)C(C)C)C(C)C)C(=O)N[C@@H](CC(C)C)C(=O)NC(C)(C)C(=O)N[C@@H](CCC(=O)O)C(N)=O
B4: Peptide 454 (peptide)
peptide: H[Aib]QGTFTSDVSK[αMeF]LDKK([AEEA-AEEA-γGlu-C20 diacid])RAQDFVRWLEA[Aib]G-NH2
modifications: N-terminus assumed
SMILES: CC(C)C[C@H](NC(=O)[C@H](Cc1c[nH]c2ccccc12)NC(=O)[C@H](CCCNC(=N)N)NC(=O)[C@@H](NC(=O)[C@H](Cc1ccccc1)NC(=O)[C@H](CC(=O)O)NC(=O)[C@H](CCC(N)=O)NC(=O)[C@H](C)NC(=O)[C@H](CCCNC(=N)N)NC(=O)[C@H](CCCCNC(=O)COCCOCCNC(=O)COCCOCCNC(=O)CC[C@H](NC(=O)CCCCCCCCCCCCCCCCCCC(=O)O)C(=O)O)NC(=O)[C@H](CCCCN)NC(=O)[C@H](CC(=O)O)NC(=O)[C@H](CC(C)C)NC(=O)[C@](C)(Cc1ccccc1)NC(=O)[C@H](CCCCN)NC(=O)[C@H](CO)NC(=O)[C@@H](NC(=O)[C@H](CC(=O)O)NC(=O)[C@H](CO)NC(=O)[C@@H](NC(=O)[C@H](Cc1ccccc1)NC(=O)[C@@H](NC(=O)CNC(=O)[C@H](CCC(N)=O)NC(=O)C(C)(C)NC(=O)[C@@H](N)Cc1c[nH]cn1)[C@@H](C)O)[C@@H](C)O)C(C)C)C(C)C)C(=O)N[C@@H](CCC(=O)O)C(=O)N[C@@H](C)C(=O)NC(C)(C)C(=O)NCC(N)=O
B5: Peptide 462 (peptide)
peptide: H[Aib]QGTFTSDVSK[αMeF]LDTK([AEEA-AEEA-γGlu-C18 diacid])RARDFVQWLLEAG-OH
modifications: N-terminus assumed
SMILES: CC(C)C[C@H](NC(=O)[C@H](CC(C)C)NC(=O)[C@H](Cc1c[nH]c2ccccc12)NC(=O)[C@H](CCC(N)=O)NC(=O)[C@@H](NC(=O)[C@H](Cc1ccccc1)NC(=O)[C@H](CC(=O)O)NC(=O)[C@H](CCCNC(=N)N)NC(=O)[C@H](C)NC(=O)[C@H](CCCNC(=N)N)NC(=O)[C@H](CCCCNC(=O)COCCOCCNC(=O)COCCOCCNC(=O)CC[C@H](NC(=O)CCCCCCCCCCCCCCCCC(=O)O)C(=O)O)NC(=O)[C@@H](NC(=O)[C@H](CC(=O)O)NC(=O)[C@H](CC(C)C)NC(=O)[C@](C)(Cc1ccccc1)NC(=O)[C@H](CCCCN)NC(=O)[C@H](CO)NC(=O)[C@@H](NC(=O)[C@H](CC(=O)O)NC(=O)[C@H](CO)NC(=O)[C@@H](NC(=O)[C@H](Cc1ccccc1)NC(=O)[C@@H](NC(=O)CNC(=O)[C@H](CCC(N)=O)NC(=O)C(C)(C)NC(=O)[C@@H](N)Cc1c[nH]cn1)[C@@H](C)O)[C@@H](C)O)C(C)C)[C@@H](C)O)C(C)C)C(=O)N[C@@H](CCC(=O)O)C(=O)N[C@@H](C)C(=O)NCC(=O)O
B6: Peptide 451 (peptide)
peptide: H[Aib]QGTFTSDVSK[αMeF]LDKK([AEEA-AEEA-γGlu-C20 diacid])RARDFVLWLL[Aib]E-NH2
modifications: N-terminus assumed
SMILES: CC(C)C[C@H](NC(=O)[C@H](Cc1c[nH]c2ccccc12)NC(=O)[C@H](CC(C)C)NC(=O)[C@@H](NC(=O)[C@H](Cc1ccccc1)NC(=O)[C@H](CC(=O)O)NC(=O)[C@H](CCCNC(=N)N)NC(=O)[C@H](C)NC(=O)[C@H](CCCNC(=N)N)NC(=O)[C@H](CCCCNC(=O)COCCOCCNC(=O)COCCOCCNC(=O)CC[C@H](NC(=O)CCCCCCCCCCCCCCCCCCC(=O)O)C(=O)O)NC(=O)[C@H](CCCCN)NC(=O)[C@H](CC(=O)O)NC(=O)[C@H](CC(C)C)NC(=O)[C@](C)(Cc1ccccc1)NC(=O)[C@H](CCCCN)NC(=O)[C@H](CO)NC(=O)[C@@H](NC(=O)[C@H](CC(=O)O)NC(=O)[C@H](CO)NC(=O)[C@@H](NC(=O)[C@H](Cc1ccccc1)NC(=O)[C@@H](NC(=O)CNC(=O)[C@H](CCC(N)=O)NC(=O)C(C)(C)NC(=O)[C@@H](N)Cc1c[nH]cn1)[C@@H](C)O)[C@@H](C)O)C(C)C)C(C)C)C(=O)N[C@@H](CC(C)C)C(=O)NC(C)(C)C(=O)N[C@@H](CCC(=O)O)C(N)=O
B7: Peptide 452 (peptide)
peptide: H[Aib]QGTFTSDVSK[αMeF]LDKK([AEEA-AEEA-γGlu-C20 diacid])RALDFVRWLL[Aib]E-NH2
modifications: N-terminus assumed
SMILES: CC(C)C[C@H](NC(=O)[C@H](C)NC(=O)[C@H](CCCNC(=N)N)NC(=O)[C@H](CCCCNC(=O)COCCOCCNC(=O)COCCOCCNC(=O)CC[C@H](NC(=O)CCCCCCCCCCCCCCCCCCC(=O)O)C(=O)O)NC(=O)[C@H](CCCCN)NC(=O)[C@H](CC(=O)O)NC(=O)[C@H](CC(C)C)NC(=O)[C@](C)(Cc1ccccc1)NC(=O)[C@H](CCCCN)NC(=O)[C@H](CO)NC(=O)[C@@H](NC(=O)[C@H](CC(=O)O)NC(=O)[C@H](CO)NC(=O)[C@@H](NC(=O)[C@H](Cc1ccccc1)NC(=O)[C@@H](NC(=O)CNC(=O)[C@H](CCC(N)=O)NC(=O)C(C)(C)NC(=O)[C@@H](N)Cc1c[nH]cn1)[C@@H](C)O)[C@@H](C)O)C(C)C)C(=O)N[C@@H](CC(=O)O)C(=O)N[C@@H](Cc1ccccc1)C(=O)N[C@H](C(=O)N[C@@H](CCCNC(=N)N)C(=O)N[C@@H](Cc1c[nH]c2ccccc12)C(=O)N[C@@H](CC(C)C)C(=O)N[C@@H](CC(C)C)C(=O)NC(C)(C)C(=O)N[C@@H](CCC(=O)O)C(N)=O)C(C)C

target: human glucagon receptor (human, UniProt P47871); assay: cell-based or functional assay

cAMP production EC50	Binder
0.0578 nM	B1
0.114 nM	B2
0.0803 nM	B3
0.162 nM	H[Aib]QGTFTSDVSK[αMeF]LDKK([AEEA-AEEA-γGlu-C20 diacid])RAQDFVRWLLE[Aib]G-NH2 [Peptide 453]
0.0665 nM	H[Aib]QGTFTSDVSK[αMeF]LDKK([AEEA-AEEA-γGlu-C20 diacid])RAQDFVRWLLAE-NH2 [Peptide 460]
0.274 nM	B4
0.0892 nM	B5
0.503 nM	B6
0.151 nM	B7

target: human GLP-1 receptor (human, UniProt P43220); assay: cell-based or functional assay

cAMP production EC50	Binder
0.0573 nM	B1
0.127 nM	B2
0.133 nM	B3
0.17 nM	H[Aib]QGTFTSDVSK[αMeF]LDKK([AEEA-AEEA-γGlu-C20 diacid])RAQDFVRWLLE[Aib]G-NH2 [Peptide 453]
0.117 nM	H[Aib]QGTFTSDVSK[αMeF]LDKK([AEEA-AEEA-γGlu-C20 diacid])RAQDFVRWLLAE-NH2 [Peptide 460]
0.173 nM	B4
0.0395 nM	B5
0.895 nM	B6
0.495 nM	B7
